Experimental findings from patent US20240383983A1 (ABL BIO, published 2024) are described below.

Test [1] addresses 4-1BB on GloResponse NFκB-luc2/4-1BB Jurkat cells (UniProt Q07011 24-255, limits assumed). Nature of the test: cell-based or functional assay.
Test [2] has as its target T1, human B7-H4 expressed on cells (CHOK-1 B7-H4, SK-BR3, CAMA-1, MDA-MB-468, MX-1, OVCAR-3) (human, UniProt Q7Z7D3 25-282).
T1 construct: whole, on cells; also called B7-H4 expressed cell line; B7-H4 positive cancer cell lines
T1 sequence (looked up): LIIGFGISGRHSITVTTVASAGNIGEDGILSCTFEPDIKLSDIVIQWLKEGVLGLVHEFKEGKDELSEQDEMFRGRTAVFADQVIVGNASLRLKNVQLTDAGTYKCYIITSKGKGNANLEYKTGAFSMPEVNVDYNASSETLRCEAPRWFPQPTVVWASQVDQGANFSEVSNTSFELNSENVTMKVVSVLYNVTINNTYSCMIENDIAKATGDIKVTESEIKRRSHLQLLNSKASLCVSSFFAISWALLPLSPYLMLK
Nature of the test: FACS on CAMA-1 cells, FITC anti-human IgG detection; table under the graph prints no unit, x axis is Ab, Log[nM]. As for the experimental part:
(§1) To evaluate the tumor antigen binding property, B10317 bispecific antibody was analyzed for its binding to B7-H4-expressing mammalian cells by FACS. Briefly, B7-H4 positive cells (MX-1 and CAMA-1) were incubated with B10317 antibodies. After wash by FACS buffer (1% BSA in PBS), the FITC-anti-human IgG antibody was added to each well and incubated at 4° C. for 45 min. The MFI of FITC was evaluated by FACS Calibur.

A further test deals with T2, recombinant human B7-H4 (human, UniProt Q7Z7D3 29-258, limits assumed).
T2 construct: also called Recombinant B7-H4 (Human)
T2 sequence (looked up): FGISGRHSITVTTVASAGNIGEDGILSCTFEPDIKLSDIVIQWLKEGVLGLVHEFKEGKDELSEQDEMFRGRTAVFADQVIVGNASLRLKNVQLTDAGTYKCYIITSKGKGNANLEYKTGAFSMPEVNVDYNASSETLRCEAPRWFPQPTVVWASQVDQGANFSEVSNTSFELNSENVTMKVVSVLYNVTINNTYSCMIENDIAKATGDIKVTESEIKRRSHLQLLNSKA
Nature of the test: SPR, antibody captured on Protein A chip, B7-H4 100 nM to 6.25 nM as analyte. How it is done:
(§2) In the SPR experiment, the anti-B7-H4/anti-4-1BB bispecific antibody obtained in Preparation Example 3 was captured on flow-cells 2, 3 and 4, keeping the flow-cell 1 as reference, on a Protein A Chip on which an anti-B7-H4/anti-4-1BB Bispecific antibody (B10317) has been immobilized by amine coupling. Recombinant B7-H4 (Human/Monkey) or 4-1BB (Human/Monkey) protein was flowed across the chip at concentration range from 100 nM to 6.25 nM for B7-H4 or 250 nM to 15.625 nM for 4-1BB at 30 μl/min for 60 seconds, followed by a dissociation phase of 180 seconds. Regeneration was performed with 10 mM Glycine-HCl (pH 1.5).
(In general: In SPR one partner is held on a chip, and binding of the other changes the refractive index at the surface.)

In test [3] the target is T3, Recombinant B7-H4 (Monkey) protein (Monkey).
T3 construct: also called monkey B7-H4
The test is described as above. As for the experimental part: as §2

The target in the next test is T4, B7-H2.
T4 construct: one of the 'other B7-family proteins'; Commonly known as ICOS ligand
T4 chain: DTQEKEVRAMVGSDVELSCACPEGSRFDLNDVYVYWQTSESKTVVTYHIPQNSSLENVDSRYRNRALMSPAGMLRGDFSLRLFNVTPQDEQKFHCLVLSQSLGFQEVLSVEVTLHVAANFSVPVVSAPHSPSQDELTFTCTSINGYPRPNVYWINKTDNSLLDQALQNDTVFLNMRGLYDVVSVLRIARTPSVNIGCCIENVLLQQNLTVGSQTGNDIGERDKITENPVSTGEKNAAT
Nature of the test: ELISA on plate-coated B7-H2 (100 ng/well), three-fold dilutions of B10317 from 100 nM. As for the experimental part:
(§3) To confirm the specific binding of anti-B7-H4/anti-4-1BB bispecific antibody against B7-H4, B10317 subjected to ELISA test. Microtiter plates were coated with each protein (100 ng/well) at 4° C. overnight, then blocked with 200 μl/well PBSB (1% (w/v) BSA in PBS). Three-fold dilutions of B10317 starting from 100 nM was added to each well and incubated at 37° C. for 1 hours. The plates were washed with PBST (0.05% (v/v) Tween20 in PBS) and then incubate for 1 hours at 37° C. with 100 ul of Anti-Fc HRP (Dilution factor, 1:30000) or Anti-Fab HRP (Dilution factor, 1:20000). The plates were washed with PBST (0.05% (v/v) Tween20 in PBS) and then the plates were developed with TMB substrate and analyzed by spectrophotometer at 450-650 nm.
For orientation: In an ELISA, binding on a coated surface is turned into a signal by an enzyme label.

The target of another test is T5, B7-H6.
T5 construct: one of the 'other B7-family proteins'; Commonly known as NCR3LG1
T5 chain: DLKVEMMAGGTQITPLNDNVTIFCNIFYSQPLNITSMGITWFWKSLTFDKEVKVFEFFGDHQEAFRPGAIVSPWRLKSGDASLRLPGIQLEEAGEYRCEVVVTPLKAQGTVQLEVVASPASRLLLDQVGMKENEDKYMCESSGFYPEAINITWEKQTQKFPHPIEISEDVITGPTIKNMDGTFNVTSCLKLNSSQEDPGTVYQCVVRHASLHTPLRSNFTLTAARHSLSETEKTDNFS
Nature of the test: ELISA on plate-coated B7-H6 (100 ng/well), three-fold dilutions of B10317 from 100 nM. As for the experimental part:
as §3

In the next test the target is T6, B7-2.
T6 construct: one of the 'other B7-family proteins'; Commonly known as CD86
T6 chain: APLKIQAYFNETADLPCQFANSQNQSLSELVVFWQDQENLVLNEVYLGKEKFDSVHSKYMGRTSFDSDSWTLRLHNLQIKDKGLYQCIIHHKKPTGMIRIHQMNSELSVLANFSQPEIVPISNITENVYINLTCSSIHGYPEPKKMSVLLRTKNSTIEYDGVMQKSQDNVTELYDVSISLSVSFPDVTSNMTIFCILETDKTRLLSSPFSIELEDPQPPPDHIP
Nature of the test: ELISA on plate-coated B7-2 (100 ng/well), three-fold dilutions of B10317 from 100 nM. How it is done: as §3

In test [4] the target is T1, human B7-H4 expressed on cells (CHOK-1 …). Put plainly: FACS on MX-1 cells, FITC anti-human IgG detection; table under the graph prints no unit, x axis is Ab, Log[nM]. As for the experimental part: as §1
In test [5] the target is T7, Recombinant 4-1BB (Monkey) protein (Monkey).
T7 construct: also called monkey 4-1BB
Nature of the test: SPR, antibody captured on Protein A chip, 4-1BB 250 nM to 15.625 nM as analyte. How it is done:
as §2

A further test deals with T8, B7-1.
T8 construct: one of the 'other B7-family proteins'; Commonly known as CD80
T8 chain: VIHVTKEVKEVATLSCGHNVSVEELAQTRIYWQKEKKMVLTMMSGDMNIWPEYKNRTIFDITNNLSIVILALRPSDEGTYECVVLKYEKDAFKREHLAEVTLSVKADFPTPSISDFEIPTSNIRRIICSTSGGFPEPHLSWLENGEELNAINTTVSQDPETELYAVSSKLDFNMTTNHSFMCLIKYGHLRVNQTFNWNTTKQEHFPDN
Put plainly: ELISA on plate-coated B7-1 (100 ng/well), three-fold dilutions of B10317 from 100 nM. As for the experimental part: as §3

Test [6] has as its target T1, human B7-H4 expressed on cells (CHOK-1 …). Nature of the test: FACS on CAMA-1 cells, FITC anti-human IgG1 detection; y axis 'Fold of induction'. How it is done:
(§4) To evaluate the tumor antigen binding property, 16E3H3 M1 clone was analyzed for its binding to B7-H4-expressing mammalian cells by FACS. Briefly, B7-H4 positive cell (MX-1, CAMA-1, SK-BR3 and OVCAR-3) or B7-H4 negative cells (PANC-1) were incubated with M40413 antibody. After wash by FACS buffer (1% BSA in PBS), the FITC-anti-human IgG 1 antibody was added to each well and incubated at 4° C. for 45 min. The MFI of FITC was evaluated by FACS Calibur.

The target is the same in test [7]. Put plainly: FACS on SK-BR3 cells, FITC anti-human IgG1 detection; y axis 'Fold of induction'. How it is done: as §4
For test [8], the target named is T9, Fc fused human B7-H4 protein (human, UniProt Q7Z7D3 29-258, limits assumed).
T9 construct: Coated on ELISA plates; not shown: Fc part
T9 sequence (looked up): T2 sequence (looked up)
Put plainly: ELISA, Fc fused human B7-H4 coated at 1 µg/ml, anti-human Fab HRP. As for the experimental part: To evaluate the antigen binding activity of the humanized antibody, 16E3H3 M1 was subjected to ELISA. Briefly, ELISA plates were coated with Fc fused human B7-H4 protein at 1 μg/ml in PBS, 100 ul/well at 4° C. overnight, then blocked with 200 ul/well of 1% BSA in PBS at 37° C. Four fold dilutions of monoclonal antibody starting from 100 nM were added to each well and incubated for 1 hours at 37° C. The plates were washed with PBST (0.05% Tween 20 in PBS) and then incubated with HRP (Horse Radish Peroxidase) conjugated Anti-human Fab for 1 hr at 37° C. The plates were washed with PBST (Tween 20 0.05% in PBS) developed with TMB substrate and analyzed by spectrophotometer at OD 450 nm˜650 nm. As shown FIG. 2. 16E3H3 M1 bound to human B7-H4 with dose dependent manner.

Chain of 4-1BB on GloResponse NFκB-luc2/4-1BB Jurkat cells (Q07011 24-255 limits assumed): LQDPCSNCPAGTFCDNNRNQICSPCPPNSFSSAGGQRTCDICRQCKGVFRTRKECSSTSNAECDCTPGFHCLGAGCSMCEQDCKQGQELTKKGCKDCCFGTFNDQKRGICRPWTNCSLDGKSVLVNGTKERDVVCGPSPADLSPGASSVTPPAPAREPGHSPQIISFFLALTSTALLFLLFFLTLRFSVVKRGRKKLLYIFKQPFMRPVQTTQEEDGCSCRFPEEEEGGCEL

B1: 16E3H3 M1 x 1A10 M12 anti-B7-H4/anti-4-1BB bispecific antibody (bispecific antibody, human IgG1, kappa, N297A)
heavy: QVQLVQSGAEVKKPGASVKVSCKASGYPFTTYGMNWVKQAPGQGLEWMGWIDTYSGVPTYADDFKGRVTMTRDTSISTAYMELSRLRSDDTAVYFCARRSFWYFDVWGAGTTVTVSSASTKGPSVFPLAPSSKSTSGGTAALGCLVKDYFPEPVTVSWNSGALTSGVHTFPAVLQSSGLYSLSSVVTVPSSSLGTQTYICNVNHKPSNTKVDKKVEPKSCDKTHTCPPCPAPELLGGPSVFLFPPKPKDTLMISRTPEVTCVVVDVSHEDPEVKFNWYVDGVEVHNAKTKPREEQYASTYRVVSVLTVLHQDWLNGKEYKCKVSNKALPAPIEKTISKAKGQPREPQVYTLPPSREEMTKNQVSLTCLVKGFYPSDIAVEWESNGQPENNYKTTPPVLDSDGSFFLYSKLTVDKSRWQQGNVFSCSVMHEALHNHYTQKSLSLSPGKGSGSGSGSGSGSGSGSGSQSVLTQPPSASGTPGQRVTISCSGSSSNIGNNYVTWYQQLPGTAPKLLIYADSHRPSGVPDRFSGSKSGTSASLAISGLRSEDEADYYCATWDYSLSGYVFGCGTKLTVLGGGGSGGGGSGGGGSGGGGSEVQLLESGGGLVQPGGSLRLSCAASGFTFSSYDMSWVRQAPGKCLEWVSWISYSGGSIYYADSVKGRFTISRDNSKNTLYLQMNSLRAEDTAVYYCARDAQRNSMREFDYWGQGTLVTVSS
light: DVVMTQSPLSLPVTLGQPASISCRSSQSLVHSNANTYLHWYLQRPGQSPRLLIYKVSNRFSGVPDRFSGSGSGTDFTLKISRVEAEDVGVYFCSQSTHVPWTFGGGTKVEIKRTVAAPSVFIFPPSDEQLKSGTASVVCLLNNFYPREAKVQWKVDNALQSGNSQESVTEQDSKDSTYSLSSTLTLSKADYEKHKVYACEVTHQGLSSPVTKSFNRGEC
notes: IgG-scFv format: anti-B7-H4 IgG1 (N297A) heavy chain, (GS)9 linker, anti-4-1BB scFv 1A10 M12 (VL-(GGGGS)4-VH) at the C-terminus; also called B10317; 16E3H3 M1×1A10M12
In the case of B1, in test [1], the “EC50 (nM) [NF-kB assay], with B-CAG-hB7-H4 MC38 cells” value is 0.093 nM; the “EC50 (nM) [NF-kB assay], with CAMA-1 cells” value was 0.145 nM; the “EC50 (nM) [NF-kB assay], with HCC1954 cells” value came out at 0.647 nM; the “EC50 (nM) [NF-kB assay], with MDA-MB-468 cells” value stood at 0.403 nM. In addition, in [1], the “EC50 (nM) [NF-kB assay], with MX-1 cells” value worked out at 0.184 nM; the “EC50 (nM) [NF-kB assay], with OVCAR3 cells” value was 0.288 nM; the “EC50 (nM) [NF-kB assay], with SK-BR3 cells” value worked out at 0.234 nM; the “Fold of Induction [NF-kB assay], with B-CAG-hB7-H4 MC38 cells” value was 76.1 fold. For the same molecule, in test [1], the “Fold of Induction [NF-kB assay], with CAMA-1 cells” value was 44.3 fold; the “Fold of Induction [NF-kB assay], with CHOK1 cells (B7-H4 negative)” value is 1.49 fold; the “Fold of Induction [NF-kB assay], with HCC1954 cells” value was found to be 3.01 fold; the “Fold of Induction [NF-kB assay], with MC38 cells (B7-H4 negative)” value came to 2.32 fold. In addition, in test [1], the “Fold of Induction [NF-kB assay], with MDA-MB-468 cells” value worked out at 6.74 fold; the “Fold of Induction [NF-kB assay], with MX-1 cells” value amounted to 62.9 fold; the “Fold of Induction [NF-kB assay], with OVCAR3 cells” value amounted to 5.02 fold; the “Fold of Induction [NF-kB assay], with PANC1 cells (B7-H4 negative)” value was 1.11 fold. Besides, the “Fold of Induction [NF-kB assay], with SK-BR3 cells” value in [1] was determined as 30.8 fold. Besides, a half-maximal response in test [2] (EC50) required 6.46 nM. Besides, in the test with recombinant human B7-H4, the equilibrium dissociation constant (Kd) (in general, the free concentration of one partner at which half of the binding sites on the other are occupied at equilibrium, for simple one-to-one binding) was determined as 4.36 nM; the koff (as a rule, the first-order rate constant of dissociation) is 0.00225 s⁻¹; the kon (usually the second-order rate constant of association) was 517000 M⁻¹ s⁻¹. In test [3], the dissociation constant Kd came out at 4.53 nM, the koff amounted to 0.00278 s⁻¹ and the kon stood at 614000 M⁻¹ s⁻¹. For the same molecule, the binding result with B7-H2 is “no binding (tested: 100 nM)”. For the same molecule, the binding result in the test with B7-H6 is on record as “no binding (tested: 100 nM)”. Besides, the binding result in the test with B7-2 is listed as “no binding (tested: 100 nM)”. Further, the EC50 (as a rule, the concentration giving half of the maximal effect) in [4] came to 10.3 nM. In test [5], the Kd worked out at 4.01 nM, the koff was 0.000899 s⁻¹ and the kon was found to be 224000 M⁻¹ s⁻¹. In addition, the binding result in the test with B7-1 was “no binding (tested: 100 nM)”.

B2: 16E3H3 M1 monospecific antibody (humanized anti-B7-H4 IgG1) (antibody, V domains shown)
VH: QVQLVQSGAEVKKPGASVKVSCKASGYPFTTYGMNWVKQAPGQGLEWMGWIDTYSGVPTYADDFKGRVTMTRDTSISTAYMELSRLRSDDTAVYFCARRSFWYFDVWGAGTTVTVSS
VL: DVVMTQSPLSLPVTLGQPASISCRSSQSLVHSNANTYLHWYLQRPGQSPRLLIYKVSNRFSGVPDRFSGSGSGTDFTLKISRVEAEDVGVYFCSQSTHVPWTFGGGTKVEIKR
notes: Humanized 16E3H3 with G29A in CDR-L1 for PTM removal; also called M40413; 16E3H3 M1 clone
Turning to B2, the half-maximal effective concentration (EC50 (read off the curve)) (in general, the concentration giving half of the maximal effect) in test [6] is around 5 nM; in test [7] it was around 4 nM. The same molecule displayed an EC50 in [8] of 0.079 nM.
